Measurements reported in article PMC9050902 (Journal of molecular biology, 2022).

Molecular target: LC8 (as used with syn-4mer) ( (S. cerevisiae or D. …, UniProt Q24117 1-89))
Assay: ITC

Sequence of LC8 (as used with syn-4mer) ( (Q24117 whole entry): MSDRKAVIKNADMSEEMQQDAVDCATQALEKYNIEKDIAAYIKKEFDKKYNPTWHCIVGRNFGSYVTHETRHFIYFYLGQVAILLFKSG

B1: synthetic four-site IDP (syn-4mer) (designed binder)
chain: GSYGSRKAIDAATQTEPKETRKAIDAATQTEPKETRKAIDAATQTEPKETRKAIDAATQTEGSYGS
- Kd: ~40 nM
